In US20020161202A1, “Apo-2DcR” (Genentech, Inc., priority 1997, published 2002):

What was measured:
[1] = test system: NF-κB; assay: Activation of NF-κB by Apo-2L in Apo-2DcR-transfected 293 cells (electrophoretic mobility shift assay); assay type: cell-based, human; conditions: 293 cells transfected with pRK5-hApo-2DcR, 18 hours; Apo-2L 0.5 μg/ml; FIG. 6
Procedure: In a similar experiment, the 293 cells were transfected by pRK5 or pRK5-hApo-2DcR (20 μg/plate) and analyzed 18 hours later for activation of NF-κB by Apo-2L (0.5 μg/ml), as in Example 10 below.
HeLa cells were transfected with pRK5 expression plasmids encoding full-length native sequence Apo-2, DR4 or Apo-3 and harvested 24 hours after transfection. Nuclear extracts were prepared and 1 μg of nuclear protein was reacted with a ^32P-labelled NF-κB-specific synthetic oligonucleotide probe […] (SEQ ID NO: 12) [see, also, MacKay et al., J. Immunol., 153:5274-5284 (1994)], alone or together with a 50-fold excess of unlabelled probe, or with an irrelevant ^32P-labelled synthetic oligonucleotide […] (SEQ ID NO: 13). In some samples, antibody to p65/RelA subunits of NF-κB (1 μg/ml; Santa Cruz Biotechnology) was added. DNA binding was analyzed by an electrophoretic mobility shift assay as described by Hsu et al., supra; Marsters et al., supra, and MacKay et al., supra.

[2] = test system: Apo-2L; assay: Binding of radioiodinated Apo-2L to Apo-2DcR-transfected 293 cells; conditions: 125I-Apo-2L; 293 cells transfected with full-length Apo-2DcR vs pRK5; FIG. 4
Chain of Apo-2L (P50591 114-281 limits assumed): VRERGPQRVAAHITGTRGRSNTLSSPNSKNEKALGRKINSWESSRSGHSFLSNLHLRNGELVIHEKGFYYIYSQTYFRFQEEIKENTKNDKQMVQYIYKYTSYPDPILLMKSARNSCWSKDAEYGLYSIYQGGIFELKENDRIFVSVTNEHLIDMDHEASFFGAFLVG
Chain of Apo-2L (O14798 26-236 partner limits assumed): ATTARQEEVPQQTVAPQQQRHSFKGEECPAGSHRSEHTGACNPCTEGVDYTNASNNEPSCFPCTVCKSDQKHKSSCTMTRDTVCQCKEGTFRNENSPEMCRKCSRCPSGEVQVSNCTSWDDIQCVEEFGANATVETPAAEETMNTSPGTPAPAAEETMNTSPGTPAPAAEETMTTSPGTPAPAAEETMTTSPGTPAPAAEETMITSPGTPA
Procedure: To test whether Apo-2DcR binds to Apo-2L, and to assess whether Apo-2DcR is GPI-linked, binding of radioiodinated Apo-2L to Apo-2DcR-transfected 293 cells was analyzed. The effect of pre-treatment of the cells with phosphatidylinositol-specific phospholipase C (PI-PLC) on the binding was also analyzed.
Human 293 cells (ATCC CRL 1573) were plated in 100 mm plates (1×10^6 cells/plate) and transfected with 20 μg/plate pRK5 or pRK5 encoding the full-length Apo-2DcR (described in Example 1, ATCC deposit 209087) using calcium phosphate precipitation. After 24 hours, the cells were harvested in PBS/10 mM EDTA, washed in phosphate buffered saline (PBS), resuspended in 2 ml PBS per original plate and divided into two 1 ml aliquots per transfection. PI-PLC [Treanor et al., Nature, 382:80-83 (1996)] (1 μg/ml) was added to one of the two aliquots derived from each transfection, and the cells were incubated 1 hour at 37° C. The cells were washed and respuspended in 1 ml PBS containing 1% BSA (Sigma), and 0.04 ml aliquots were placed into tubes in triplicate. […] After a 1 hour incubation at room temperature, the cells were washed in ice cold PBS, pelleted, and counted for radioactivity.

[3] = test system: Human 293 cells; assay: Apo-2L apoptosis induction in Apo-2DcR-transfected 293 cells (morphology of GFP-positive cells); assay type: cell-based; conditions: 293 cells transfected with pRK5-hApo-2DcR; Apo-2L 0.5 μg/ml; examined over 6 hours; FIG. 5
Procedure: Human 293 cells, which express both DR4 and Apo-2 mRNA (data not shown), were plated in 100 mm plates (1×10^6 cells/plate) and transfected with 3 μg per plate pRK encoding green fluorescent protein (GFP; purchased from Clontech) together with 20 μg/plate pRK5 or pRK5-hApo-2DcR (see Example 2) using calcium phosphate precipitation. After 18 hours, the cells were treated with PBS or with Apo-2L (Pitti et al., supra, 0.5 μg/ml) and examined over 6 hours under a fluorescence microscope equipped with Hoffman optics (which enables clear viewing of non-fixed cells on plastic). GFP-positive cells were identified by green fluorescence and scored for apoptosis by morphologic criteria such as membrane blebbing and cytoplasmic condensation.

[4] = test system: NF-κB; assay: NF-κB activation in HeLa cells transfected with receptor plasmids (electrophoretic mobility shift assay); assay type: cell-based, human; conditions: harvested 24 hours after transfection, FIG. 12A
Procedure: HeLa cells were transfected with pRK5 expression plasmids encoding full-length native sequence Apo-2, DR4 or Apo-3 and harvested 24 hours after transfection. […] Immunol., 153:5274-5284 (1994)], alone or together with a 50-fold excess of unlabelled probe, or with an irrelevant ^32P-labelled synthetic oligonucleotide […] NO: 13). In some samples, antibody to p65/RelA subunits of NF-κB (1 μg/ml; Santa Cruz Biotechnology) was added. DNA binding was analyzed by an electrophoretic mobility shift assay as described by Hsu et al., supra; Marsters et al., supra, and MacKay et al., supra.

Molecule	Apo-2L function as measured by NF-κB activation [1]	amount of specific Apo-2L binding [2]	responsiveness to Apo-2L as measured by apoptosis induction [3]	NF-κB activation upon transfection [4]
Apo-2DcR: full-length native sequence human Apo-2DcR polypeptide, 259 amino acids, GPI-anchored TNFR family member; expressed by transfection (protein) ATTARQEEVPQQTVAPQQQRHSFKGEECPAGSHRSEHTGACNPCTEGVDYTNASNNEPSCFPCTVCKSDQKHKSSCTMTRDTVCQCKEGTFRNENSPEMCRKCSRCPSGEVQVSNCTSWDDIQCVEEFGANATVETPAAEETMNTSPGTPAPAAEETMNTSPGTPAPAAEETMTTSPGTPAPAAEETMTTSPGTPAPAAEETMTTSPGTPA	inhibits Apo-2L function	marked increase	markedly reduced	–
Apo-3/DR3: full length native sequence human TNFR family polypeptide with cytoplasmic death domain; expressed by transfection (protein, UniProt Q93038 1-417, looked up, full-length, expressed by transfection) MEQRPRGCAAVAAALLLVLLGARAQGGTRSPRCDCAGDFHKKIGLFCCRGCPAGHYLKAPCTEPCGNSTCLVCPQDTFLAWENHHNSECARCQACDEQASQVALENCSAVADTRCGCKPGWFVECQVSQCVSSSPFYCQPCLDCGALHRHTRLLCSRRDTDCGTCLPGFYEHGDGCVSCPTSTLGSCPERCAAVCGWRQMFWVQVLLAGLVVPLLLGATLTYTYRHCWPHKPLVTADEAGMEALTPPPATHLSPLDSAHTLLAPPDSSEKICTVQLVGNSWTPGYPETQEALCPQVTWSWDQLPSRALGPAAAPTLSPESPAGSPAMMLQPGPQLYDVMDAVPARRWKEFVRTLGLREAEIEAVEVEIGRFRDQQYEMLKRWRQQQPAGLGAVYAALERMGLDGCVEDLRSRLQRGP	–	–	–	activation observed
